Laboratory results from the DeepSol protein solubility set.

assay: soluble on expression in E. coli; label from the status in PepcDB or PDB records

Question: For “MGSDKIHHHHHHMETVYFKTLLAVVETGSFSRAAERLCITQSAVSQRIKLLEGRYGYTLIDRAGNFLVPTAAGELVIQKARVIIEHELALLGALKLLPAKTVISFCCSPCFGTVFLPALVRDFVLRNSEQIDFRCVLGSSQGAVRGLRDTDFNIIVIEHCTPLDLSPYDVISLPNDEIIFVSNPATGLDVPEPDLSQLLNLPVIMRKEGCSGTEQLAANLARFGKVLEDFRSVTGLDDPRLIVQTVKTEPYLAFVPKSLVLKELAEGSLRAHTVKGFSHARFRSLVTAPKRYSDPCRSNFIKAVMETVCHISAVSMPGDGPGSRWHKKRPSGRRAPLNSAVTNNAAI”, which “soluble on expression in E. coli” value is on record?
Answer: not soluble

Question: Which “soluble on expression in E. coli” value does the source give for “MGSDKIHHHHHHMSLRRIMVTAVRNLHPVTLLPSPRINILYGANGSGKTSVLEAVHLLGLARSFRSTRLNPVIQYEQAACTVFGEVQLTEGGTSNLGVSRERQGEFTIRIDGQNARSAAQLAELLPLQLINPDSFRLLEGAPKIRRQFLDWGVFHVEPRFLPAWQRLQKALRQRNSWLRHGTLDPASQAAWDRELCLASAEIDEYRRNYIKALKPVFERTLSELVELDGLTLSYYRGWDKDRELQEVLASSLLRDQQMGHTQAGPQRADLRLRLAGNNAADILSRGQQKLVVCALRIAQGHLVSQARRGHCIYLVDDLPSELDDQHRRALCRLLEELRCQVFITCVDHELLREGWQTETPVALFHVEQGRITQTHDHRE” here?
Answer: not soluble

Question: For “MRILLIHSDYIEYEVKDKAIKNPEPISEEEKKGRMDEVLVAFISVEKVDETNPEEVVSKAVEEIINVASQVKAENVFVYPFAHLSSELAKPSVAQEILRKVYEGLKEKGYNVGKAPFGYYKAFKISCKGHPLAELSRTIIPEGAKEEEVPEALKKEETELVSYWYILTPEGELIEVDKFDFTGYENLRKFANYEISKSRIAEKEPPHVKLMLEHELVDYEPGSDPGNLRYYPKGRLIKSLLEQYVTEKVIEYGAMEVETPVMYDFEHPALEKYLNRFPARQYIVLSGDKKYFLRFAACFGQFLISKDAVISYRHLPLRMYELTRYSFRREKRGELSGLRRLRAFTMPDMHTLAKDLEQAKDEFKKQFKLSMEVLKGVGLTPEDYEVAIRFTEDFWKENRDFIVELVKIIGKPVLIEMWKQRFFYFILKFEFNFVDNLDKAAALSTVQIDVENAERFGIKYYDENGEEKYPLILHCSPSGAIERVMYAILEKQAKLMQEGKKPMLPLWLSPIQVRVIPVSEEYLDYALYIAGKLEGARIRVDVDDEDERLNKKIRRAEKEWIPYIVVVGAKEKESGTITVRRREDGKQYETRLEELIKEIKEKVEGFPYKPRPLPLLLSKRPKFRG”, which “soluble on expression in E. coli” value is on record?
Answer: soluble

Question: For “MSETKERLCIYADFPYEFAVCAPRTDCPKREQCLRASAYDGVLARGLQKITVINPLIPTSEQGCKAFADNTPVLFAHGITHLYDELPHHAVQSLKHRLLTYFGKTTYYRIYRKERYITIQEQDYIRDSFVRAGFSSDLIRYDAMVYMYELQSAMVKSD”, which “soluble on expression in E. coli” value is on record?
Answer: not soluble

Question: For “MPKDKLVITVSGLAGSGTTTLSKKIAEHYGLKHVYAGLIFRQMAKEKGMSLEEFQKYAELHPEIDREVDRRQIEAAKEGNVVIEGRLAGWMVKNADLKIWLDAPIRVRAERVAKREGISVEEAFMKIAEREMQNRKRYLNLYGIDINDLSIYDLIINTSKWSPEGVFAIVKAAIDHLDPVGDAGSKKEKEVG”, which “soluble on expression in E. coli” value is on record?
Answer: soluble

Question: For “MDELNSPLGERAQGASLAHVVWSDPQWLERYPLTFENVLTYFSRSPFYDPTCNNELVRMQMHPELQGEMLYYTQREEELLLGMQGVEYVPLCSSDAHELFIIRKQVRRSADEVHVTNLYYILYGQVYEAPAFSTVLLVRLRQSADFLVRSLGLLRQWLSKKEYGEPGATGHGHEDTLLLQLLRKAQQRNRQL”, which “soluble on expression in E. coli” value is on record?
Answer: not soluble

Question: For “MSLVERVILIVLDSVGAGEMPDADKYGDKGSDTIGNISKAVGGLKLPDMVKMGLGNISGIKGVDKVQYPIGAFGKLKEMSKGKDTVTGHWEMSGVILEEPLNTYPNGFPKDIIDEFEKKIGRKVIGNKVASGTEIIKELGDEHIKTGCPIVYTSADSVFQVAAHEEIIPLDELYKICKVAREMLVDDRTVGRVIARPFVGKNSNYTRTSNRRDFALDPFNKTMLEYIKENKSNVMCVGKIEDIFNKKGVTEAVHIKNNMDGVDKTLEYMKTDKKGLIFTNLVDFDMLYGHRNDPKGYAKALEEFDGRINEIKTNMKDYDVLMITADHGCDPTTESTDHSREYIPFIAYGKDIKGGADIKIRDSFSDIGKTILDLLQVENNLVGKSFKDIIMKEGHHHHHH”, which “soluble on expression in E. coli” value is on record?
Answer: not soluble

Question: Which “soluble on expression in E. coli” value does the source give for “MAHHHHHHMDQLVYYVMVQHNSIQPIIVRQPPTVVIHTQPNPPITLDLPPQNIILKNDEPQPIIVRQQNPNIIVQKSGNEFSENPNYALSLNQQMKEITSMTSPSAAIPHGGIAQVGIPHVTNEPLLGVTTPEMNELTDPAYIYSNQYITTQNKSQPMNNMYFTSVPLNNDGSYSPYNMTLYANKREDYTKSTPSKY” here?
Answer: not soluble

Question: With “MRNILKATTLENKFPLFTVENGCIVSKDADITVAFRVELPELFTVTAAEYEAIHSAWNKAVKVLPDYSIVHKQDWFIKENYAPDIQKDDLSFLSRSFERHFNERPFLNHTCYLFLTKTTKEHSRMQSNFSTLCRGFLVPKEIRDRETVTKFLEAVGQFESIMNDSGFITLTRLSSDEITGTRETAGIVEKYFSLSQTDTTTLKDISLGADEMKIGDNILCLHTLSDAEDMPGKVGTDTRYEKLSTDRSDCRLSFASPVGVLLSCNHIYNQYIFIDDHTENLKQFEKMARNMHSLSKYSRANQINKSWIEEYLNEAHSQGLISVRCHCNIMAWSDDRDELKHIKNDVGSQLALMECKPRHNTTDTPTLFWAGIPGNQADFPAEESFYTFIEQALCLFTEETNYKSSLSPFGIKMVDRVTGKPLHIDISDLPMKRGIITNRNKFILGPSGSGKSFFTNHMVRQYYEQNAHVLLVDTGNSYLGLCEMINRKTHGEDGIYFTYTTENPIAFNPFYVEDGVFDIEKKESIKTLILTLWKRDDEAPTRAEEVALSNAVSSYIGLITKDCSVTPCFNTFYEYVRNDYRAHLQEKNVREKDFDIDNFLNVLEPYYKGGEYDYLLNSDKELDLLHKRFIVFELDNIKDHKILFPITTIIIMEVFINKMRKLKGIRKLILIEEAWKAIASANMADYIKYLYKTVRKYFGEAIVVTQEVEDIISSPIVKESIINNSDCKILLDQRKYLNKFDSIQNLLGLTDKERSQVLSINLANHPNRKYKEVWIGLGGTQSAVYATEVSLDEYFTYTTEETEKMELFALSEKLGGNLELAIKRLAESKRNPEK” as the sequence, how does the “soluble on expression in E. coli” value read?
Answer: not soluble

Question: With “MSLIRGVIGYTITPFTADGTLDLDALGTSIDSLIAGGVHAIAPLGSTGEGAYLSDSEWETVVRFSQARIAGRVPSVVSVSDLTTARTVQRARLAQACGATAVMVLPISYWKLTEAEVVAHYKAVGAAIDIPIMLYNNPGTSGTDLSVELILRILGEVPNVTMVKESTGDIQRMHRLFTATDGQVAFYNGCNPLTLEALVAGATGWCTAAPNLIPALNLALWDAVQQGDLAEARALFYRQYELLEYITRRGLPTTIKAGLKMLGQDVGAPRLPLQPLDAQGSNHLKSLLEGHHHHHH” as the sequence, how does the “soluble on expression in E. coli” value read?
Answer: soluble

Question: Which “soluble on expression in E. coli” value does the source give for “MTQQLVKKGQQISLKIKRLGINGEGIGYYKKLIIFVPGALPKEEVTATITNVTPKFAEGTLQSVKKAAKDRVVPPCPVYETCGGCQLQHLAYKAQLDFKKDLLKQALNKFKPANYQNYELRKTIGMDNPWNYRNKAQFQLRQIDGQVEAGLYQADSHQLVPIDNCLVQQPATTKVMNTLVDLLNDFQLPIYDERKNSGIFRTLMVRVGIQTGEVQVVFITQSQKFPQKEKMVRAINEQLPEVVSIMQNVQNKKTSLVMGDDTLHLWGKESIEEHINDVVFDLSPRAFFQLNPEQTEVLYNEGIKALDLQPNETVVDAYCGVGTIGLSLAKQAHQVRGMDTIPAAIDDARFNAKRLGVTNTHYAVGTAEDLLPKWFKEGFKPDAIVVDPPRTGLDRKLLTALLKQPPKKMVYISCNVSTLARDLVQLAKVYQVDYLQSVDMFPQTARCEVVVKLTRK” here?
Answer: not soluble

Question: With “GPGSMSGTLLKEELLQLDNKRRSIMRDIEEAMTFLNSTPVGLRGSLVDSEGFPRDDCDLYAVRRARHTVNCGHNDLKSIEATIHEKLSQLHEECRGEAEEQMQRDKMKKKSEDDQRRRDEQKQVMSSKEPFVRVVDVATGSPAEEGGLICGHLIVQYGDVDAEKVLEGGFGEMARVTSSYEGQMLRVWVRSPSDDDCGGARELFIVPQRWRGEGLLGCTFEPMKLN” as the sequence, how does the “soluble on expression in E. coli” value read?
Answer: soluble

Question: For “MGSDKIHHHHHHMIQKGLEGVKICESSICYLDGINGRLYYRGIPVEELAEKSTFEETAYFLWYGKLPTKSELEEFKRKMADYRELPAEALGILYHLPKNLHYIDVLKIFLSIHGSMDGNDEDLREKAIRVASVFPTILAYYYRYSKGKELIRPRKDLSHVENFYYMMFGERNEKIRLLESAFILLMEQDINASTFAALVIASTLSDLYSCIVGALGALKGPLHGGASEKVPPMLEEIGSEDRVEEFVQKCLKEKRKIMGFGHRVYKTYDPRAVFLKRVLQEHFPDSKLFRIASKLEEYIVSNKIKNIYPNVDLYSSVLFEELGFPRNMFTALFATARVVGWTAHVIEYVSDNKLIRPTSEYVGPMDVEYIPIERRDENG”, which “soluble on expression in E. coli” value is on record?
Answer: not soluble

Question: Which “soluble on expression in E. coli” value does the source give for “MGSDKIHHHHHHMNFQQCRYVEAIANTGSFSEAAKKLYVTQPNLSSSIKELENDLGVQLFIRSNTGARLTDDGYDFLKYAKRILGEADLLKKRYQDNYKKSFTISSHHYDFLAIPLLEIAEKFKKDFQHFHLIETTTKKILESVLNFESDLGILYLNDDNRHILERYFKQHDLAFTPLGDFPTRIFLRKDHPLAQQKVIEKVQLKDYKQVRFRQEISGLNFDEDTLDIPENQSVFYSNDRGTIMNILCGSDAYASGLGIVNSFIKDQIVLIPLKDSKMHTLGFVSNKRKQETDITQQFITAVKNSLRTYERGTQL” here?
Answer: not soluble

Question: For “MAHHHHHHMPCNCRQGTGTHDHLQDGFARGGMFGVGSPLNAQVDVDLLQLWNSRNSVSEAARIFDPAKGDNDQPICSDADPELLLLIPLKEVCRIRSVSILGTNDDFAPSQVKLFCNPTGVVGFDSVRRLQHQEEIQLAQVSADDRIAYRLNPAKFSSAGCMGMLFEHSFGDDETHILRIELFGESTGRPVYQQTATNVVYEAMANPTDHNVGEELKKTFTIF”, which “soluble on expression in E. coli” value is on record?
Answer: soluble

Question: Which “soluble on expression in E. coli” value does the source give for “MGSDKIHHHHHHMKILITGATGFVGRNLVPYLFSHGFVELAIAVRDPQKAISMFESIPLTYISCERTFRQQIIDFAPEVVIHLATNFNFHSDEKSVRDIVDANILFGSLLLEAVSYTPCKFFINLGTFAEYYYNDGNFLPNTFYAATKTAFRSIIQYYQLKGDFKWINLIGYTIYGKKNDSKKIIDYLIDALNSPIPLNFTKGEQINDFIHINDVSDFFYVLLSNLNLLEDTMYTQLYLGTGKGTSIRELSYIIETVYKQKVNANWGGLSYRPYDIMYAVAPISRNLDLLKWKTKISLEEGIKMLRYE” here?
Answer: not soluble

Question: With “MLGAIIGDLVAWTWERDQSLFYQRLIAPKANISEVGLAVLGVTEPMLRGSSEVEWESLYLHIREIIQRDRITDISPDFNDWTEAGHQAVIPKEVKSVMHLAVSIVGGWCDAPLETTLAYSRRFHGGKEEYYLTQIAEIIYRLRQGATKQEAMEDIHYIKNWKPQGKVSLLGYAHHAWQCFLQSWDFTSALHNAMRCSYGDKHLLGALTGAIAEAMYSCEYGFIKEKYGKGSDTQFMLSLPKELSGLYRVELGLIESNKELLRTFFPKNRALTNVEVWQWFDLPNIVAHKPLSEREYQRIRLSHDTGWDARYGIYWDDGWYYVYCSGFLLNRFRVEEMQDHTYRITRIQYCTQHEEGKAYNALIKALSLDGLDMSAYSQYKD” as the sequence, how does the “soluble on expression in E. coli” value read?
Answer: not soluble
